Paper PMC2644404 (Journal of molecular biology, 2008)

Target: T1, Human salivary α-amylase (human, UniProt P0DUB6 16-511)
T1 sequence (looked up): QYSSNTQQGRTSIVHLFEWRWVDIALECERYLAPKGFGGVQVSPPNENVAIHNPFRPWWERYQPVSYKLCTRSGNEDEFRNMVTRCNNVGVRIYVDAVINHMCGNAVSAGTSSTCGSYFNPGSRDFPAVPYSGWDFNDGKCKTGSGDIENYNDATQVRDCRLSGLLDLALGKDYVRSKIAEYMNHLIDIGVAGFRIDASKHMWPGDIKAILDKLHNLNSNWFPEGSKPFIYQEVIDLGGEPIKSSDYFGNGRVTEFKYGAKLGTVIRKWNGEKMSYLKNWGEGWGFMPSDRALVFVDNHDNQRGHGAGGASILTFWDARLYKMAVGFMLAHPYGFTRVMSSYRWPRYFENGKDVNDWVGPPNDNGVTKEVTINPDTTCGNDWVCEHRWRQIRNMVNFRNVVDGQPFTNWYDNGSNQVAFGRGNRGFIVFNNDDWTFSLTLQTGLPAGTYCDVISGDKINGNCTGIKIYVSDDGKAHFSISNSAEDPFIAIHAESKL
Test: SPR

B1: Amylase binding protein A (natural protein, S. gordonii, UniProt A8AZZ3 1-195, looked up)
chain: MKKVLLSSVVALTLFAAAAPVFSADEATDAARNNDGAYYLQTQFTNADKVNEYLAQHDGEIRAEAAADPAVVAAKAALDAVEGGSHNYGEVKAAYEAAFNNAFNAVRNKYVQQFQATYNNATEQEGKTYIQGETPEQANARYLKRVGAANNQNPAAEDKGATTPASKEEAKKSEAAAKNAGKAAGKALPKTSAVK
What does the source list for B1?
Ka: 8.79e+07 M⁻¹; Kd: 0.0113 µM; koff: 0.000307 s⁻¹; kon: 27000 M⁻¹ s⁻¹
